Assay results published in US20240166725A1 (BEIJING WISDOMAB BIOTECHNOLOGY, published 2024).
Like-named read-outs stand apart in the source and are kept apart here.

What was measured:
[1] = molecular target: T1, varicella-zoster virus recombinant protein gH-His/gL (varicella-zoster virus strain Oka, UniProt Q775J3 18-795; Q9J3N1 23-160); assay: competition ELISA on coated gH/gL; competitor: phage S8B8 (same clone), bound phage detected with HRP-anti-M13
[2] = molecular target: T2, gH/gL protein of varicella-zoster virus, native, on VZV (Oka) virions and VZV-infected MRC5 cells (varicella-zoster virus (Oka), UniProt Q775J3 18-841); assay: cell-based or functional assay
T2 sequence (Q775J3 18-841): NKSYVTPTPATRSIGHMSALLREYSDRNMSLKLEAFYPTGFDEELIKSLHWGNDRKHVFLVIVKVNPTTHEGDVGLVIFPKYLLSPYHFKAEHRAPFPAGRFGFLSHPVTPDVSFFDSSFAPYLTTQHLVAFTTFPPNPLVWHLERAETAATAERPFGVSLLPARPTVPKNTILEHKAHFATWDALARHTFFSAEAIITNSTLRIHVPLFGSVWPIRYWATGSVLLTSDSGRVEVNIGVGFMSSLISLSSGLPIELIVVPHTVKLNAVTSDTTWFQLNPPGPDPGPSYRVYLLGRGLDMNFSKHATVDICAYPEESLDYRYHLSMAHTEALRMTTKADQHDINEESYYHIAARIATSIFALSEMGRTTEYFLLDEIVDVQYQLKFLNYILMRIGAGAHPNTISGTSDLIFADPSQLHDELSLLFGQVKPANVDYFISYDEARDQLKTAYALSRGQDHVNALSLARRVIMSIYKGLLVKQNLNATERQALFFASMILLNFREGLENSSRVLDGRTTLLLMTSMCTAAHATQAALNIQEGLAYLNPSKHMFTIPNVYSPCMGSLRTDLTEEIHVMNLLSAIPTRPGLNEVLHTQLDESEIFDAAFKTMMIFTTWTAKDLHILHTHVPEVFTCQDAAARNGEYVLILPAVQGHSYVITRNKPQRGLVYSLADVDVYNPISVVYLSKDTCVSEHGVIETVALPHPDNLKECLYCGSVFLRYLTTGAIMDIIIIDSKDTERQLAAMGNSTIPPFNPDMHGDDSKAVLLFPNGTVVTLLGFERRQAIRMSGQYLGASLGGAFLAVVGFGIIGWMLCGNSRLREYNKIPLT

[3] = molecular target: T2, gH/gL protein of varicella-zoster …; assay: cell-based or functional assay; remark: listed apart in the source
[4] = molecular target: T1, varicella-zoster virus recombinant …; assay: competition ELISA on coated gH/gL; competitor: phage S8E1 (same clone), bound phage detected with HRP-anti-M13
[5] = molecular target: T1, varicella-zoster virus recombinant …; assay: solid-phase phage display screening on gH-His/gL
[6] = molecular target: T2, gH/gL protein of varicella-zoster …; assay: cell-based or functional assay; remark: listed apart in the source
[7] = molecular target: T2, gH/gL protein of varicella-zoster …; assay: cell-based or functional assay; remark: listed apart in the source
[8] = molecular target: T1, varicella-zoster virus recombinant …; assay: competition ELISA on coated gH/gL; competitor: phage H4H8-L1B7 (same clone), bound phage detected with HRP-anti-M13
[9] = molecular target: T1, varicella-zoster virus recombinant …; assay: competition ELISA on coated gH/gL, scFv phage at fixed concentration, anti-M13 detection
[10] = molecular target: T1, varicella-zoster virus recombinant …; assay: competition ELISA on coated gH/gL; competitor: phage S7A10 (same clone), bound phage detected with HRP-anti-M13

T1 sequence (Q775J3 18-795, tags left off, chain 1 of 2): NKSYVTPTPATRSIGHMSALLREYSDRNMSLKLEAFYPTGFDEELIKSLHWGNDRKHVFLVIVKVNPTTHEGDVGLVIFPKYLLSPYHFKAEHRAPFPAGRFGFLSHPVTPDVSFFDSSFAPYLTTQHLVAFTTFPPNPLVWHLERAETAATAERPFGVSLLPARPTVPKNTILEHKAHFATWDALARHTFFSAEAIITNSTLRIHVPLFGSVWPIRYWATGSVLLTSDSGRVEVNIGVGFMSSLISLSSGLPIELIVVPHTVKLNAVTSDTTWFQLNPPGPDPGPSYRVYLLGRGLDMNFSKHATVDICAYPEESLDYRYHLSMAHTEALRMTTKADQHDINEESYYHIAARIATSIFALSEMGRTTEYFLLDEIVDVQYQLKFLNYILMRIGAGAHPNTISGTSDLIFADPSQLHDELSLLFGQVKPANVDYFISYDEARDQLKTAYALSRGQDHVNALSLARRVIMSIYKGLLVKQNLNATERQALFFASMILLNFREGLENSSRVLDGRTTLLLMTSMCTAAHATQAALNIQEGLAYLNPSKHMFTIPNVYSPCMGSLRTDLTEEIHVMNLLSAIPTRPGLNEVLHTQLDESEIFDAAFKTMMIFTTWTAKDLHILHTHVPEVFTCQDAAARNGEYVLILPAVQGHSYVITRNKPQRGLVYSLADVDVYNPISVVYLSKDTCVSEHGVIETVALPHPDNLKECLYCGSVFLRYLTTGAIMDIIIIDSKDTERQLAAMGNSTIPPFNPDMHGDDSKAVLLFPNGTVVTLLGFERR
T1 sequence (Q9J3N1 23-160 limits assumed, chain 2 of 2): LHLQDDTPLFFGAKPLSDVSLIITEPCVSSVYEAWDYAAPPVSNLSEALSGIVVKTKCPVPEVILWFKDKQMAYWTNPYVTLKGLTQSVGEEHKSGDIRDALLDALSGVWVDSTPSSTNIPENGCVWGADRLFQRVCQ

| Binder | PRNT50 (µg/mL), plaque reduction neutralisation of VZV (Oka) on MRC5 cells [2] | PRNT50(µg/mL), plaque reduction, antibody added 24 h after infection of MRC5 cells (cell-to-cell transmission) [3] | PRNT50(µg/mL), plaque reduction neutralisation of VZV on MRC5 cells [6] | PRNT50(µg/mL), plaque reduction, antibody added 24 h after infection of MRC5 cells (cell-to-cell transmission) [7] | also measured |
| --- | --- | --- | --- | --- | --- |
| S8B8-IgG1 (antibody, V domains shown, also called monoclonal antibody S8B8) VH: EVKLVESGGGLVQPGGSLKLSCAASGFTFSSYTMSWVRQTPEKRLEWVAFISNGGDNNYYADTVKGRFIISRDNAKNTLYLQMSSLKSEDTAMYYCARHNGNWGFAYWGQGTLVTVSA VL: QNVLTQSPTTMAASPGEKITITCSASSSISSNYLHWYQQKPGFSPKLLIYRTSNLASGVPARFSGSGSGTSYSLTIGTMEAEDVATYYCQQGSSIPLTFGAGTKLEIKR | 0.38 µg/mL | 3.21 µg/mL |  |  | IC50 (read off the curve) [1]: ~0.3 nM |
| S8E1-IgG1 (antibody, V domains shown, also called monoclonal antibody S8E1) VH: EVKLVESGPGLVKPSQSLSLTCSVTGYSITSGYYWNWIRQFPGNKLEWMGYISYDGSNNYNTSLKNRISITRDTSKNQFFLKLNSVTTEDTATYYCAREDVNYPPYALDYWGQGTSVTVSS VL: SIVMTQTPLSLPVSLGDQASISCRSSQSLVHSNGNTYLHWYLQKPGQSPKLLIYKVSNRFSGVPDRFSGSGSGTDFTLKISRVEAEDLGVYFCSQSTHVPWTFGGGTKLEMKR | 0.38 µg/mL | 2.82 µg/mL |  |  | IC50 (read off the curve) [4]: ~0.5 nM |
| single chain fragment variable S7A10 (phage-displayed) (scFv, also called clone S7A10; phage S7A10) scFv: QVQLKESGPGPVKPSQSLSLTCSVTGYSITSGNYWNWVRQFPGNKLEWMAYISYDGSTYYNPSLKNRISITRDTSKNQFFLKLNSVTTEDTATYYCAEGYYGYWFAYWGQGTLVTVSAGGGGSGGGGSGGGGSENVLTQSPAILSASPGEKVTMTCRASSSVSYMHWYQQKPGSSPKPWIYATSNLASGVPARFSGSGSGTSYSLTISRVEAEDAATYYCQQWSSNPFTFGSGTKLEIK |  |  |  |  | binding result [5]: binds |
| H4H8-L13C7-IgG1 (antibody, V domains shown) VH: EVQLVESGGGVVQPGRSLRLSCGASGFTFNTYAMHWVRQAPGKGMEWVAVISYGGGNRYYAASVKGRFTISRDNSKNTLFLQLNTLRPEDTAVYYCARARDNHYFFGMDVWGRGTTVTVSS VL: DIQMTQSPSSVSASVGDRVTITCRASQGISSWLAWYQQKPGKAPKLLIYAASSLQSGVPSRFSGSGSGTDFTLTISSLQPEDFATYYCQQATYFPINFGGGTKVEIKR |  |  | > 0.4 µg/mL | > 2 µg/mL |  |
| H4H8-L14H8-IgG1 (antibody, V domains shown) VH: EVQLVESGGGVVQPGRSLRLSCGASGFTFNTYAMHWVRQAPGKGMEWVAVISYGGGNRYYAASVKGRFTISRDNSKNTLFLQLNTLRPEDTAVYYCARARDNHYFFGMDVWGRGTTVTVSS VL: DIQMTQSPSSVSASVGDRVTITCRASQGISSWLAWYQQKPGKAPKLLIYAASSLQSGVPSRFSGSGSGTDFTLTISSLQPEDFATYYCQQSSYFPIAFGGGTKVEIKR |  |  | 0.016 µg/mL | 0.31 µg/mL |  |
| H4H8-L13C1-IgG1 (antibody, V domains shown) VH: EVQLVESGGGVVQPGRSLRLSCGASGFTFNTYAMHWVRQAPGKGMEWVAVISYGGGNRYYAASVKGRFTISRDNSKNTLFLQLNTLRPEDTAVYYCARARDNHYFFGMDVWGRGTTVTVSS VL: DIQMTQSPSSVSASVGDRVTITCRASQGISSWLAWYQQKPGKAPKLLIYAASSLQSGVPSRFSGSGSGTDFTLTISSLQPEDFATYYCQEGFYFPINFGGGTKVEIKR |  |  | 0.016 µg/mL | 0.28 µg/mL |  |
| H4H8-L1B7-IgG1 (antibody, V domains shown, also called H4H8-LIB7-IgG1; monoclonal antibody H4H8-L1B7) VH: EVQLVESGGGVVQPGRSLRLSCGASGFTFNTYAMHWVRQAPGKGMEWVAVISYGGGNRYYAASVKGRFTISRDNSKNTLFLQLNTLRPEDTAVYYCARARDNHYFFGMDVWGRGTTVTVSS VL: DIQMTQSPSSVSASVGDRVTITCRASQGISSWLAWYQQKPGKAPKLLIYAASSLQSGVPSRFSGSGSGTDFTLTISSLQPEDFATYYCQQANSFPLTFGGGTKVEIKR |  |  |  |  | IC50 (read off the curve) [8]: ~2 nM |
| single chain fragment variable S8B8 (phage-displayed) (scFv, also called clone S8B8; phage S8B8) scFv: EVKLVESGGGLVQPGGSLKLSCAASGFTFSSYTMSWVRQTPEKRLEWVAFISNGGDNNYYADTVKGRFIISRDNAKNTLYLQMSSLKSEDTAMYYCARHNGNWGFAYWGQGTLVTVSAGGGGSGGGGSGGGGSQNVLTQSPTTMAASPGEKITITCSASSSISSNYLHWYQQKPGFSPKLLIYRTSNLASGVPARFSGSGSGTSYSLTIGTMEAEDVATYYCQQGSSIPLTFGAGTKLEIK |  |  |  |  | binding result [9]: binds |
| single chain fragment variable S8E1 (phage-displayed) (scFv, also called clone S8E1; phage S8E1) scFv: EVKLVESGPGLVKPSQSLSLTCSVTGYSITSGYYWNWIRQFPGNKLEWMGYISYDGSNNYNTSLKNRISITRDTSKNQFFLKLNSVTTEDTATYYCAREDVNYPPYALDYWGQGTSVTVSSGGGGSGGGGSGGGGSSIVMTQTPLSLPVSLGDQASISCRSSQSLVHSNGNTYLHWYLQKPGQSPKLLIYKVSNRFSGVPDRFSGSGSGTDFTLKISRVEAEDLGVYFCSQSTHVPWTFGGGTKLEMK |  |  |  |  | binding result [5]: binds |
| S7A10-IgG1 (antibody, V domains shown, also called monoclonal antibody S7A10) VH: QVQLKESGPGPVKPSQSLSLTCSVTGYSITSGNYWNWVRQFPGNKLEWMAYISYDGSTYYNPSLKNRISITRDTSKNQFFLKLNSVTTEDTATYYCAEGYYGYWFAYWGQGTLVTVSA VL: ENVLTQSPAILSASPGEKVTMTCRASSSVSYMHWYQQKPGSSPKPWIYATSNLASGVPARFSGSGSGTSYSLTISRVEAEDAATYYCQQWSSNPFTFGSGTKLEIKR | 0.34 µg/mL | 0.93 µg/mL |  |  | IC50 (read off the curve) [10]: ~2 nM |
